37 sequences from the supplement of paper PMC12636428 can be followed below.

The series relates to Saccharomyces cerevisiae. Description: transcriptional activation domain activity (GFP:mCherry ratio, weighted mean of sorted bins, harmonized to initial dataset scale) (arbitrary fluorescence ratio units); higher = stronger transcriptional activation. Conditions: beta-estradiol 1 µM; induction time 4 h. Put shortly: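 Sorting into 8 bins by GFP:mCherry ratio followed a 4-hour hold at 30 °C after cultures were diluted 1:5 into SC with 1 uM beta-estradiol. The yeast diploids carried a GFP reporter and had barcoded protein tiles, fused to an estradiol-inducible synthetic transcription factor, integrated at URA3. Barcodes were then sequenced, and tiles with under 50 reads were removed. Activation activity is the read-weighted mean of bin median fluorescence, averaged across barcodes and linearly mapped onto the initial dataset scale.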

Consider “MALFLGCIDFGQYKLNLEKYSGWLTIPLVPSEQALFYHTVKIIYSIFLHPLRN”, for which the “transcriptional activation domain activity” value was found to be 66500.
For the sequence “ILLVALPLFSFGFESFLPFGKDSGILYYFWLYSTRVFCPCMGFLWAIFALLPF”, the “transcriptional activation domain activity” value came out at 59700.
In the case of “GSELEVKKPSKKRAPKKAAKKEEYEGSEMDEKPAPKRRAPARSTKKAAKKEEA”, the “transcriptional activation domain activity” value worked out at 15800.
The same measure for “KSVLERILVRGAMGSERHMKHELKVFYAMRGKLSWFIKWVHVVLRWVFAKSVL”: 48000; for “IAMQPGEHQYDFEAHDFGLDLSDDLITQLEAGIGEYAWGSMPMDGNFWDQLYW”: 127000.
In the case of “AFHKLQLERGWTGAKMVMHLLKVYFSWQYGHHCTVYRPIFMRDMALGGPYFSQ”, the “transcriptional activation domain activity” value stood at 55200.
Take “SMLEQQESTSAARAEGQRGGAVQEGDIELVDAACVQLASRISPKSLLQRPMVD”: the “transcriptional activation domain activity” value is 31900.
In the case of “MMLLLMLMILMMILTMMMLLLLHKQENEGCVLFLFLLWWLWLWFWLWCCWKSS”, the “transcriptional activation domain activity” value is 35300.
Take “VKKAAEDGEDEAEEKPAPKAKRGRKKAELDEDDEEEAQPAKKKAKKAAPKAAA”: the “transcriptional activation domain activity” value is 21400.
Take “SPWSLPHLESKFVEDGLYYAIQVISYISKINSKASYYYYQIRMLLVASRFIMQ”: the “transcriptional activation domain activity” value came out at 46000.
In the case of “RQEREGYEDYEDGSRRKHKNRHSRSPSSDGEDRISRKRKSRRAKDVEDSHANS”, the “transcriptional activation domain activity” value turned out to be 25500.
As for “KVAAGANGETDGEAKTKKKSSKRVSRRRQPGEEDDEEEAEGAGEGAEKAKKNK”, the figure is 20300; as for “MLFVFAQLHQVPLSEYFLLGCLYWFFYHIIFSSIFRPSHSIGMASGLPMLYTP”, 45000.
Consider “RKEKGRNANNAKKGQNKRGGAQKEKAKTKVKSGEVSAEPGMKRGKRGRRRAAA”, for which the “transcriptional activation domain activity” value came out at 48200.
The same measure for “WDDILTPADNQHRPSLTNQFLSPRSNYDGTTRSSGIDSNYSDTESNYHTPYLY”: 61600.
For “MDSGGRLEVHLFFFLLLFVQMWFSWVYFLFSLVFLTLLTRDLGGLLLLVYSFC”, the “transcriptional activation domain activity” value is 34700.
Regarding “NLLSKELLMPAVSELNEYLDLFKNNFLPHFPIIHPSLLDLDLDSLQRYTNEDG”, the “transcriptional activation domain activity” value was 48900.
On to “RGDEDADGDDDEGEGSGDKTGDAEAGAAPSSGAGGGSSNSKKNKKKKNKKKGK”, for which the “transcriptional activation domain activity” value is 51900.
The same measure for “CIKATLAPDSAIFVGPSALIFHVLQLSILIILLLKTGGPGSGKGTQCTRLAKD”: 29600; for “MAVSIWDFVLCIFPHLHFLCLWIVFLSLFMFSYCFKFRFTPVLLTISLPRCFF”: 51200.
As for “EAGAEEAAAGAGGRQEAASVEEAAREAARRRQQAEAGRGRRRRQPAGAEEAAE”, the figure is 33300; as for “GHGTHCSGTVAGKKYGVAKKASVYAVKVLRSNGSGTMSDVVKGVEYAAESHIK”, 7670.
As for “MFLCFFHVFMLYLCHYVIVMLIYFLIYFMLFLLFMFLNTILQYEFLILHFCFI”, the “transcriptional activation domain activity” value worked out at 47500.
Take “DGKTRRSKVRPRRGAPTGAAGSPAAAGSSKSDTEANSDKGAAGKKRKPRPARK”: the “transcriptional activation domain activity” value is 37100.
Take “AGKKTVTSEEAEVKVEVEAEVGVEVDIEPAAAKKPAKKTKAKVKTIAEEEVKV”: the “transcriptional activation domain activity” value was determined as 31900.
On to “IKQQWSVFVLWSIWYRIAFTPVFWRNLGRRNLGGLIMILMNEYREVILFYWDM”, for which the “transcriptional activation domain activity” value stood at 48500.
Regarding “ITQMQQTDFYHVDQDDYVHSFVIHNSRLMWNVAIRAIVMRFIELQSQASLLQY”, the “transcriptional activation domain activity” value turned out to be 51800.
Regarding “SNYSNLATRAPSGPPQFLVNNVIQHWGGVDGWIKWILKIRKAYILRRDVFLAT”, the “transcriptional activation domain activity” value stood at 56800.
On to “MLYSFSFTTIGYILAFNPPDGRFFYLMLLGLFVQHLIVYVILFVLILLPICVY”, for which the “transcriptional activation domain activity” value amounted to 34300.
The same measure for “MSAPPEEVASTQSAQPTTEPALIGEPVKRGRGRPKGSKNKAKPSTAATATGEA”: 34800; for “SLGMGLDYWARLSGLYLQKLGWGYRVWCFSFWMGLSLGFLLLFSSLGAYILFL”: 55400.
On to “SPAPSFRGKSKAEEERERAVLDITDRVSKLLRKTQLQVRVIVECIHCKSPKHL”, for which the “transcriptional activation domain activity” value was determined as 33300.
“TSSPSGQNASSTSVALVVGSDEKLVKAVGEGLKSKLGIKGGGKGPRWTGKWTG”: the “transcriptional activation domain activity” value turned out to be 33700.
The same measure for “DGGEAGEGGTEGAGGGAGGEEGQQGKRPEEGKRKERHRPAEEHGKEKNHGRGE”: 30700; for “LVRQEDLINIAFHFVAKIPCTWPLPLRKAIADLHHYGGLHVGCTVSALFWYIL”: 45300.
For the sequence “CKAHCGYILGHINIFQPLNWIFVKSSKVFPIDYILYLLLVLFFFCSSVVGIAT”, the “transcriptional activation domain activity” value was 28100.
In the case of “GLANYLKPVHDQKLIIFIEILILLWAVLVYSTVQVARGATGFYLPTVLYNIYL”, the “transcriptional activation domain activity” value amounted to 49300.
